Experimental data published in patent US20140356359A1 (RINAT NEUROSCIENCE, published 2014).
Residue numbers refer to the chain shown, from its start.

Assays:
[1] = target: full-length cyno GHR on transfected HEK293 cells (cynomolgus monkey); test: cell-based or functional assay
[2] = target: T1, human GHR (as in Tables 1 and 2) (human, UniProt P10912 49-253, limits assumed); test: Biacore, Fab, 25 C
T1 sequence: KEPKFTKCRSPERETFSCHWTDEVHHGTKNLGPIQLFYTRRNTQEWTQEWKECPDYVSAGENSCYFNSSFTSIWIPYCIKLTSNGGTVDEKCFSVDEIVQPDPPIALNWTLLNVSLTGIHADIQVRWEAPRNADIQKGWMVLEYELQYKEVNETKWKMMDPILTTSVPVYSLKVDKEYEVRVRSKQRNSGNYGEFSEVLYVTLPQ

[3] = target: T1, human GHR (as in Tables 1 and 2); test: Biacore, Fab, 37 C
[4] = target: T1, human GHR (as in Tables 1 and 2); test: Biacore, 25 C; 25 C (no asterisk)
[5] = target: T2, hGHR-hFc fusion protein (R&D Systems Catalog#1210-GR) (human, UniProt P10912 19-264); test: Biacore T200, hGHR-hFc captured on anti-human Fc, Fab as analyte, 37 C
T2 construct: bought; also called hGHR/Fc; human GHR/hFc; not shown: human Fc of the bought fusion protein
T2 sequence: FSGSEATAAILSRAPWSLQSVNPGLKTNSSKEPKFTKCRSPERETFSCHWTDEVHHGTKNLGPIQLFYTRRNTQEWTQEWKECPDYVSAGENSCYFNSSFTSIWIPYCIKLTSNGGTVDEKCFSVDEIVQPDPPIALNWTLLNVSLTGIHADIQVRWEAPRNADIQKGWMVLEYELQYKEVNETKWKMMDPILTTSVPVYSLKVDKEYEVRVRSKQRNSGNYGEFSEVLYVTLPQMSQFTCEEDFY
Method: (§1) An anti-human Fc sensor chip was prepared by activating all flow cells of a Biacore™ CM4 sensor chip with a 1:1 (v/v) mixture of 400 mM EDC and 100 mM NHS for 7 minutes, at a flow rate of 10 μL/min. […] All flow cells were blocked with 100 mM ethylenediamine in 150 mM borate buffer pH 8.5 for 7 minutes at 10 μL/min.
The kinetics assay was run using a methodology with varying dissociation times as described in Katsamba et al., supra. […] Flow cell 1 was used as a reference surface. Following capture of hGHR-hFc, analyte (buffer, SS1 Fab or Ab13 Fab) was injected at 30 μL/min on all flow cells for two minutes. After the analyte injection, dissociation was monitored for 30 minutes (400 nM Fab cycle) or 60 seconds (all other cycles) followed by regeneration with two 30-second injections of 75 mM phosphoric acid. A 5-membered dilution series of Fab was analyzed using this method, where the top concentration was 400 nM and the dilution factor was 3-fold. Buffer cycles were collected at both 30 minute and 60 second dissociation times for double-referencing purposes. The double-referenced sensorgrams were fit globally to a simple 1:1 Langmuir with mass transport binding model (with a local Rmax parameter for each flow cell).
(§2) The experiments were performed at 37° C. using a running buffer of 10 mM HEPES, 150 mM NaCl, 0.05% (v/v) Tween-20™, pH 7.4.

[6] = target: T1, human GHR (as in Tables 1 and 2); test: Biacore, 37 C (asterisk)
[7] = target: T3, cyno GHR, his-tagged monomer of amino acids 31-235 of the extracellular domain (cynomolgus monkey, UniProt Q9XSZ1 49-253 (Papio anubis entry)); test: Biacore T200, Fab captured on anti-human kappa, GHR as analyte, 37 C
T3 construct: not shown: his tag
T3 chain: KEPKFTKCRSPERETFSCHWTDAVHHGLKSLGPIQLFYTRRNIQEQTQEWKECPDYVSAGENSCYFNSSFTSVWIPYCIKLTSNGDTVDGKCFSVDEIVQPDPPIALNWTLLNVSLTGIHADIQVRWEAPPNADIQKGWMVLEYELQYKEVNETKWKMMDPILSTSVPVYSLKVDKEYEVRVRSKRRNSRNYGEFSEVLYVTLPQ
Method: as §1, with “kappa” for “Fc”
(§3) The kinetics assay was run using a methodology with varying dissociation times as described in Katsamba et al., supra. Fabs were captured onto downstream flow cells (flow cells 2, 3 and 4) at 2 μg/mL at a flow rate of 10 μL/min for 2 minutes. Different Fabs were captured on each flow cell. Flow cell 1 was used as a reference surface. Following capture of fabs, analyte (buffer, human GHR or cyno GHR) was injected at 30 μL/min on all flow cells for two minutes. […] A 6-membered dilution series of GHR was analyzed using this method, where the top concentration was 400 nM and the dilution factor was 3-fold. Buffer cycles were collected with both 30 minute and 60 second dissociation times for double-referencing purposes. The double-referenced sensorgrams were fit globally to a simple 1:1 Langmuir with mass transport binding model.
as §2

[8] = target: T4, human GHR, his-tagged monomer of amino acids 31-235 of the extracellular domain (human, UniProt P10912 49-253); test: as above
T4 construct: not shown: his tag
T4 sequence: T1 sequence
Method: as §1, with “kappa” for “Fc”
as §3, §2

[9] = target: T3, cyno GHR, his-tagged monomer of amino …; test: Biacore 2000, antibody captured on anti-human Fc, GHR as analyte, 25 C
Method: as §1, with “ethyl-N-(3-[…])carbodiimide (EDC, Biacore™)” for “EDC”, “N-hydroxysuccinimide (NHS, Biacore™)” for “NHS”
(§4) Antibodies were captured onto downstream flow cells (flow cells 2, 3 and 4) at 4 μg/mL at a flow rate of 10 μL/min for 1 minute. Different antibodies were captured on each flow cell. Flow cell 1 was used as a reference surface. Following capture of antibodies, analyte (buffer, human GHR or cyno GHR) was injected at 30 μL/min on all flow cells for two minutes. […] After the analyte injection, dissociation was monitored for 30 minutes (for the 400 nM GHR cycle) or 30 seconds (all other cycles) followed by regeneration of all flow cells with two 30-second injections of 75 mM phosphoric acid. A 5-membered dilution series of GHR was analyzed using this method, where the top concentration was 400 nM and the dilution factor was 3-fold. Buffer cycles were collected with both 30 minute and 30 second dissociation times for double-referencing purposes. The double-referenced sensorgrams were fit globally to a simple 1:1 Langmuir with mass transport binding model.
(§5) The experiments were performed at 25° C. using a running buffer of 10 mM HEPES, 150 mM NaCl, 0.05% (v/v) Tween-20™, pH 7.4.

[10] = target: T4, human GHR, his-tagged monomer of amino …; test: as above
Method: as §1, with “ethyl-N-(3-[…])carbodiimide (EDC, Biacore™)” for “EDC”, “N-hydroxysuccinimide (NHS, Biacore™)” for “NHS”
as §4, §5

[11] = target: T3, cyno GHR, his-tagged monomer of amino …; test: Biacore 2000, antibody captured on anti-human Fc, GHR as analyte, 25 C, replicate
Method: as §1, with “ethyl-N-(3-[…])carbodiimide (EDC, Biacore™)” for “EDC”, “N-hydroxysuccinimide (NHS, Biacore™)” for “NHS”
as §4, §5

[12] = target: T4, human GHR, his-tagged monomer of amino …; test: as above
Method: as §1, with “ethyl-N-(3-[…])carbodiimide (EDC, Biacore™)” for “EDC”, “N-hydroxysuccinimide (NHS, Biacore™)” for “NHS”
as §4, §5

[13] = target: T1, human GHR (as in Tables 1 and 2); test: Biacore, IgG2ΔA, 25 C

Chain of full-length cyno GHR on transfected HEK293 cells (cynomolgus monkey) (Q9XSZ1 other isoform, or with tags, fused parts or gaps limits assumed): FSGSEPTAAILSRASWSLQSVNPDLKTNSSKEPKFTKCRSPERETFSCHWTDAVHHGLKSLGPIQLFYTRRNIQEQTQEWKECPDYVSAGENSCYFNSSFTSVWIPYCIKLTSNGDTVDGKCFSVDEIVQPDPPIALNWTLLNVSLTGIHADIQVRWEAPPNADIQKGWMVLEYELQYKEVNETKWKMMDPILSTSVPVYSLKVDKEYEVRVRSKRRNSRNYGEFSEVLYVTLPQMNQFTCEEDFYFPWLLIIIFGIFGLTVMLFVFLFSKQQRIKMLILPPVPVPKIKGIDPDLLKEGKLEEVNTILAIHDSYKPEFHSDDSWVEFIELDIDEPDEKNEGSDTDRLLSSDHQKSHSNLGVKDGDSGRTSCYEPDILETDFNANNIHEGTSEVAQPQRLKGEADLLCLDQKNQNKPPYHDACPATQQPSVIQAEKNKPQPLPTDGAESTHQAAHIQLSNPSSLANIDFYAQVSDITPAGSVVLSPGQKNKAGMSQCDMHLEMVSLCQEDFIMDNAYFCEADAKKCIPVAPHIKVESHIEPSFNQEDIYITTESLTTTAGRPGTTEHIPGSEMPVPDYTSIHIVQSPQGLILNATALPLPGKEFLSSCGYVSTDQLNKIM

In the case of “human growth hormone (from UniProt P01241 27-217) (ligand)”, the STAT5 phosphorylation, fluorescent signal (Ave); 4.5 nM GH (fluorescent signal) [1] is reported as 562 and the STAT5 phosphorylation, fluorescent signal (ave); 4.5 nM GH (fluorescent signal) [1] is reported as 847.

B1: SS4 Fab (Fab, V domains shown)
VH: EVQLVESGGGLVKPGGSLRLSCAASGFTFSDAWMDWVRQAPGKGLEWVAEIRSKANNHATYYAESVKGRFTISRDDSKNTLYLQMNSLKTEDTAVYYCTLYRDYWGQGTLVTVSS
VL: EIVLTQSPGTLSLSPGERATLSCTATSSVSSSYLHWYQQKPGQAPRLLIYSTSNLASGIPDRFSGSGSGTDFTLTISRLEPEDFAVYYCHQYHRSTPTFGGGTKVEIK
notes: Fab
In the case of B1, the Kd [2] is reported as 28.4 nM, the Kd [3] is reported as 124 nM and the Kd [4] is reported as 28.4 nM.

B2: SS1 Fab (Fab, V domains shown)
VH: B1 VH with N57Y, Y101I
VL: B1 VL with H35N
notes: Fab
B2 showed a Kd [5] of 1 nM, a koff [5] of 0.000359 s⁻¹ and a kon [5] of 374000 M⁻¹ s⁻¹. The “t 1/2” value [5] was 0.537 h, the Kd [6] was 1.56 nM and the Kd [7] was 3.2 nM. The koff [7] was 0.000576 s⁻¹, the kon [7] was 182000 M⁻¹ s⁻¹ and the “t 1/2” value [7] was 0.333 h. It also gave a Kd [8] of 1.6 nM, a koff [8] of 0.000215 s⁻¹ and a kon [8] of 138000 M⁻¹ s⁻¹. The “t 1/2” value [8] was 0.895 h and the Kd [3] was 1.6 nM.

B3: SS3 Fab (Fab, V domains shown)
VH: B1 VH with Y101F
VL: B1 VL with H35N, S95F
notes: Fab
In the case of B3, the Kd [6] is reported as 1.99 nM and the Kd [3] is reported as 1.99 nM.

B4: TM1 Fab (Fab, V domains shown)
VH: B1 VH with N57Y, Y101I
VL: B1 VL with S32W
notes: Fab
B4 showed a Kd [6] of 3.4 nM and a Kd [3] of 3.4 nM.

B5: TM9 Fab (Fab, V domains shown)
VH: B1 VH with N57Y, Y101I
VL: B1 VL with S95G
notes: Fab
B5 gave a Kd [6] of 3.3 nM and a Kd [3] of 3.3 nM.

B6: SS1 hIgG2Δa (antibody, V domains shown)
VH: B1 VH with N57Y, Y101I
VL: EIVLTQSPGTLSLSPGERATLSCTATSSVSSSYLNWYQQKPGQAPRLLIYSTSNLASGIPDRFSGSGSGTDFTLTISRLEPEDFAVYYCHQYHRSTPTFGGGTKVEIKR
notes: humanized IgG; also called SS1 (replicate)
B6 showed a Kd [9] of 1.3 nM, a koff [9] of 0.0001 s⁻¹ and a kon [9] of 81000 M⁻¹ s⁻¹. The “t 1/2” value [9] was 1.85 h, the Kd [10] was 1 nM and the koff [10] was 7.7e-05 s⁻¹. For the same molecule, the kon [10] was 74000 M⁻¹ s⁻¹, the “t 1/2” value [10] was 2.5 h and the Kd [11] was 1.2 nM. The koff [11] was 0.00011 s⁻¹, the kon [11] was 89000 M⁻¹ s⁻¹ and the “t 1/2” value [11] was 1.78 h. It also gave a Kd [12] of 0.8 nM, a koff [12] of 6.4e-05 s⁻¹ and a kon [12] of 77000 M⁻¹ s⁻¹. The “t 1/2” value [12] was 3 h.

B7: SS3 hIgG2Δa (antibody, V domains shown)
VH: B1 VH with Y101F
VL: B6 VL with S95F
notes: also called SS3 IgG2ΔA
With B7 the Kd [13] was 1.7 nM.

B8: SS4 IgG2ΔA (antibody, V domains shown)
VH: B1 VH
VL: B1 VL
notes: IgG2ΔA
In the case of B8, the Kd [13] is reported as 43.1 nM.
